Data reported in patent US20240376188A1 (UNIVERSITY OF NORTH CAROLINA AT CHAPEL HILL, published 2024).
Ends that are not written are not given here.

T1: acetylated peptide at residue K280 (276QIIN-K-Ac-KLDLSNVQSC) (human)
T1 construct: Coated at 1 ug/ml on 96-well plates; also called acetylated tau peptide
T1 peptide: QIINK(Ac)KLDLSNVQSC

B1: 19B6 (antibody, V domains shown)
VH: EVQLQQSGAEFVRPGASVKLSCTVSGLNIEDDYIQWLKQRPEQGLEWIGWIDPENGDPKYASKFQGKATLTADTSSKIAYLHLSSLTSEDTAVYYCATRGLWGQGTTLTVSS
VL: QIVLTQSPAIMSASLGERVTMTCTASSSVSSSYFHWYQQKPGSSPKLWIYSTSNLASGVPVRFSGSGSGTSYSLTISSMEAEDAATYYCHQYHRSPLTFGAGTKLELK
notes: Used as hybridoma supernatant in the peptide ELISA; also called Ac-K280 clone 19B6
B2: 17G8 (antibody, V domains shown)
VH: B1 VH
VL: B1 VL
notes: Used as hybridoma supernatant in the peptide ELISA; also called Ac-K280 clone 17G8

Target: T1, acetylated peptide at residue K280 …
Assay: peptide ELISA, peptide coated at 1 ug/ml, hybridoma supernatant diluted 1:10 to 1:2,500
Method: FIG. 13 includes an ELISA assay showing two K280 clones, 19B6 and 17G8, preferentially detect acetylated vs, non-acetylated tau peptides. Standard peptide ELISAs were performed with 1 μg/ml acetylated peptides at residue K280 (276QIIN-K-Ac-[…] (SEQ ID NO:17)) vs, non-acetylated peptides (276[…] (SEQ ID NO: 16)) and used to coat 96-well plates followed by washing with coating buffer (Phosphate Buffered Saline, pH 7.4) and incubated with serial dilutions of hybridoma supernatants (diluted from 1:10 to 1:2,500). Monoclonal antibodies were […] Horseradish peroxidase (HRP)-labeled secondary antibodies and colorimetric ELISAs were performed using a BMG/BioTek® multiplate reader at a standard absorbance setting of 450 nm with auto-mixing and blanking.

Row | Binder | binding result
1 | B1 | binds
2 | B2 | binds
